{
  "source": "patent US20150093398A1",
  "about": "“Methods and Compositions for Treating or Preventing Cancer” (MERCK SHARP & DOHME CORP., priority 2005, published 2015)",
  "molecules": {"B1": {"name": "19D12: anti-IGF1R antibody: light chain variable region amino acids 20-128 of SEQ ID NO: 8, heavy chain variable region amino acids 20-137 of SEQ ID NO: 10 (antibody, V domains shown)", "VL": "MSPSQLIGFLLLWVPASRGEIVLTQSPGTLSVSPGERATLSCRASQSIGSSLHWYQQKPGQAPRLLIKYASQSLSGIPDRFSGSGSGTDFTLTISRLEPEDFAVYYCHQSSRLPHTFGQGTKVEIKRT", "VH": "MEFGLSWVFLVAILKGVQCEVQLVQSGGGLVKPGGSLRLSCAASGFTFSSFAMHWVRQAPGKGLEWISVIDTRGATYYADSVKGRFTISRDNAKNSLYLQMNSLRAEDTAVYYCARLGNFYYGMDVWGQGTTVTVSS", "modifications": "variable regions only: LC 20-128, HC 20-137; constant regions lack entries"}},
  "system": "Hs700T malignant pancreatic cells",
  "test": "Hs700T pancreatic xenograft tumor growth in mice (04 IGFR-16, 19D12 and Gemzar combination);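 also: subcutaneous flank xenografts in athymic nude mice, treated once tumors averaged 100 mm^3, antibody given intraperitoneally twice weekly, tumor size measured by calipers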",
  "experimental": "Athymic nude mice were inoculated with tumor cells in the right flank, subcutaneously, along with Matrigel (1:1 cells:gel). In these experiments, 5×10^6 cells/mouse in a 1:1 mix with regular matrigel were inoculated subcutaneously. Tumor size was measured with calipers and the data was entered into the labcat program. Mice were grouped with average size of 100 mm^3. Tumor size and body weight were measured twice weekly.\nIn these experiments, mice were dosed twice per week, intraperitoneally (i.p.) with antibody 19D12 and chemotherapeutic agents at the indicated frequency. Tumor size and mouse body weight was measured twice weekly after treatment.",
  "data": [
    {"molecule": "B1", "values": [
      {"measurement": "Tumor Average Size", "setting": "0.1 mg 19D12, Day 0", "result": 74, "unit": "mm^3"},
      {"measurement": "Tumor Average Size", "setting": "0.1 mg 19D12, Day 4", "result": 86, "unit": "mm^3"},
      {"measurement": "Tumor Average Size", "setting": "0.1 mg 19D12, Day 7", "result": 89, "unit": "mm^3"},
      {"measurement": "Tumor Average Size", "setting": "0.1 mg 19D12, Day 11", "result": 98, "unit": "mm^3"},
      {"measurement": "Tumor Average Size", "setting": "0.1 mg 19D12, Day 14", "result": 123, "unit": "mm^3"},
      {"measurement": "Tumor Average Size", "setting": "0.1 mg 19D12, Day 18", "result": 165, "unit": "mm^3"},
      {"measurement": "Tumor Average Size", "setting": "0.1 mg 19D12, Day 21", "result": 187, "unit": "mm^3"},
      {"measurement": "Tumor Average Size", "setting": "0.1 mg 19D12, Day 26", "result": 272, "unit": "mm^3"},
      {"measurement": "Tumor Average Size", "setting": "0.1 mg 19D12, Day 29", "result": 335, "unit": "mm^3"},
      {"measurement": "Tumor Average Size", "setting": "0.1 mg 19D12, Day 33", "result": 371, "unit": "mm^3"},
      {"measurement": "Tumor Average Size", "setting": "0.1 mg 19D12, Day 36", "result": 415, "unit": "mm^3"},
      {"measurement": "Tumor Average Size", "setting": "0.5 mg 19D12, Day 0", "result": 75, "unit": "mm^3"},
      {"measurement": "Tumor Average Size", "setting": "0.5 mg 19D12, Day 4", "result": 70, "unit": "mm^3"},
      {"measurement": "Tumor Average Size", "setting": "0.5 mg 19D12, Day 7", "result": 69, "unit": "mm^3"},
      {"measurement": "Tumor Average Size", "setting": "0.5 mg 19D12, Day 11", "result": 71, "unit": "mm^3"},
      {"measurement": "Tumor Average Size", "setting": "0.5 mg 19D12, Day 14", "result": 93, "unit": "mm^3"},
      {"measurement": "Tumor Average Size", "setting": "0.5 mg 19D12, Day 18", "result": 115, "unit": "mm^3"},
      {"measurement": "Tumor Average Size", "setting": "0.5 mg 19D12, Day 21", "result": 137, "unit": "mm^3"},
      {"measurement": "Tumor Average Size", "setting": "0.5 mg 19D12, Day 26", "result": 239, "unit": "mm^3"},
      {"measurement": "Tumor Average Size", "setting": "0.5 mg 19D12, Day 29", "result": 249, "unit": "mm^3"},
      {"measurement": "Tumor Average Size", "setting": "0.5 mg 19D12, Day 33", "result": 282, "unit": "mm^3"},
      {"measurement": "Tumor Average Size", "setting": "0.5 mg 19D12, Day 36", "result": 334, "unit": "mm^3"},
      {"measurement": "Tumor Average Size", "setting": "1 mg 19D12, Day 0", "result": 77, "unit": "mm^3"},
      {"measurement": "Tumor Average Size", "setting": "1 mg 19D12, Day 4", "result": 80, "unit": "mm^3"},
      {"measurement": "Tumor Average Size", "setting": "1 mg 19D12, Day 7", "result": 85, "unit": "mm^3"},
      {"measurement": "Tumor Average Size", "setting": "1 mg 19D12, Day 11", "result": 81, "unit": "mm^3"},
      {"measurement": "Tumor Average Size", "setting": "1 mg 19D12, Day 14", "result": 99, "unit": "mm^3"},
      {"measurement": "Tumor Average Size", "setting": "1 mg 19D12, Day 18", "result": 128, "unit": "mm^3"},
      {"measurement": "Tumor Average Size", "setting": "1 mg 19D12, Day 21", "result": 152, "unit": "mm^3"},
      {"measurement": "Tumor Average Size", "setting": "1 mg 19D12, Day 26", "result": 231, "unit": "mm^3"},
      {"measurement": "Tumor Average Size", "setting": "1 mg 19D12, Day 29", "result": 280, "unit": "mm^3"},
      {"measurement": "Tumor Average Size", "setting": "1 mg 19D12, Day 33", "result": 312, "unit": "mm^3"},
      {"measurement": "Tumor Average Size", "setting": "1 mg 19D12, Day 36", "result": 305, "unit": "mm^3"}
    ]}
  ]
}
